We go through 1 molecule from patent publication US20240075161A1 (AUGUSTA UNIVERSITY RESEARCH INSTITUTE, published 2024).

Where no end group is shown, it is not given here. The star is where a group is joined. Biotin = O=C1N[C@H]2[C@H](CS[C@H]2CCCCC(=O)*)N1

The assay deals with T1, CD206 on CD206-positive M2 macrophages (mouse) (mouse, UniProt Q61830 20-1456).
T1 construct: whole, on cells; No purified CD206 was used; also called CD206 receptor; CD206+ RAW264.7 cells
T1 sequence (looked up): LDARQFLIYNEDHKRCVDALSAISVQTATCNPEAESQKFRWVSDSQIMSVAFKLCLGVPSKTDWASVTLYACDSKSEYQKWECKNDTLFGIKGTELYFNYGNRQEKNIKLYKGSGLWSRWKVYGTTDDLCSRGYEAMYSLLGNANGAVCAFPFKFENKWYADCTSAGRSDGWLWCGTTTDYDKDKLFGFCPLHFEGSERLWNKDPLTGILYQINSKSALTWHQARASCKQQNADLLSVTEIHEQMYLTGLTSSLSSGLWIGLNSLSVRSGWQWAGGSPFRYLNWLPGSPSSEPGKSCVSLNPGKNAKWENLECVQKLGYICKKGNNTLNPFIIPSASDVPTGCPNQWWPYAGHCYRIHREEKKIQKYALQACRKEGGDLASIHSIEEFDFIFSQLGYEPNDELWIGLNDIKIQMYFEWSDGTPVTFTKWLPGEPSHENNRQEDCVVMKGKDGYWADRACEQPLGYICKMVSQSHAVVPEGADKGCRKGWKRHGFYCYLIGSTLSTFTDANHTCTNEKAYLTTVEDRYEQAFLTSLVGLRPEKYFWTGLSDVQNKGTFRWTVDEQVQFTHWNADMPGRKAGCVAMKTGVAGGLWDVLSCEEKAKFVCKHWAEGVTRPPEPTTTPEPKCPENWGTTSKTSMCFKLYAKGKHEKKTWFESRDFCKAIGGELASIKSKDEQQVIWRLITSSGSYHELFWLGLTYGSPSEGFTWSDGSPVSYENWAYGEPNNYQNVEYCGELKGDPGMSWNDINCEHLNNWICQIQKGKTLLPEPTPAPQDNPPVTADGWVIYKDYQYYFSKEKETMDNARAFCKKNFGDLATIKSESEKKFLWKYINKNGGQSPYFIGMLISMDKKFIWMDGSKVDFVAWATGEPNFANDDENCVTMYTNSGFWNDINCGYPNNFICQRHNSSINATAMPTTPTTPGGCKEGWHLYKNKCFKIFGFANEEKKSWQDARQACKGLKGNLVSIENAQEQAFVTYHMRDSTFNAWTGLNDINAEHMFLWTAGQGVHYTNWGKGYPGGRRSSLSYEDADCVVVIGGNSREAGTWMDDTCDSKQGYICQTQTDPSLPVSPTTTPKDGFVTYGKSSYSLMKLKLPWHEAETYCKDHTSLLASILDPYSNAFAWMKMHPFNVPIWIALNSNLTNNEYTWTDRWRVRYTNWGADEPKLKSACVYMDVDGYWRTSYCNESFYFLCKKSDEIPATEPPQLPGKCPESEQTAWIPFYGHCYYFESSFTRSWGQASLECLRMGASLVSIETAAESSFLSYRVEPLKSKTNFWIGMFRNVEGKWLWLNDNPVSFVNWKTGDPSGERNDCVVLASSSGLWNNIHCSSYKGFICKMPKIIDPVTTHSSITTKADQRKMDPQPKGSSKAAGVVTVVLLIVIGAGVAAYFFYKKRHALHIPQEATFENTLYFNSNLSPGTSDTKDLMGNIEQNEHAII
The assay can be described thus: immunofluorescence of tumor, spleen and lung sections of 4T1 tumor-bearing mice after i.v. injection.

B1: Biotinylated precision peptide (Biotin-CSPGAKVRC), rhodamine-labeled (peptide)
peptide: Biotin-CSPGAKVRC
modifications: cysteine pairing not given here; also: complex with rhodamine-tagged streptavidin
notes: Synthetic peptide (GeneScript); injected i.v. as a complex with rhodamine-streptavidin; also called Rhodamine red-labeled targeting peptide; rhodamine-labeled precision peptide
As to B1, the binding result is on record as “binds”.
